Each block holds one binder with its values, some of them ahead of it.
Experiments:
Experiment in all cases: holdup assay
Parameters in all cases: key: below the threshold = too weak to quantify, mostly under pKd 3.1 to 4
[1] = target: PDZRN4_1, Q6ZMN7
[2] = target: GRIP2_3, Q9C0E4
[3] = target: CASK, O14936
[4] = target: T1, DLG3_3, Q92796
T1 sequence (Q92796 374-475, limits assumed, looked up): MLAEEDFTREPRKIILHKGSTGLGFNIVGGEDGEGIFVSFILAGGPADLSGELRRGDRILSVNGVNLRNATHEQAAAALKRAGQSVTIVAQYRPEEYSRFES

[5] = target: PTPN3, P26045
[6] = target: PARD3_3, Q8TEW0
[7] = target: T2, HTRA4, P83105
T2 sequence (P83105 378-476, limits assumed, looked up): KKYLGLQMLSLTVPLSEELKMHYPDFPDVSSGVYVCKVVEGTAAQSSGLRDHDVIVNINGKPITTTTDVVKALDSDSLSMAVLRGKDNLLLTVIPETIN

[8] = target: NHERF2_2, Q15599
[9] = target: T3, MPP6, Q9NZW5
T3 sequence (Q9NZW5 125-219, limits assumed, looked up): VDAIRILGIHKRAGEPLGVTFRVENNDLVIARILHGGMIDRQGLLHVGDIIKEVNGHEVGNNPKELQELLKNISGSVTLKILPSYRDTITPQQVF

[10] = target: Inadl_4, Q8NI35
[11] = target: T4, GRIP1_4, Q9Y3R0
T4 sequence (Q9Y3R0 467-571, limits assumed, looked up): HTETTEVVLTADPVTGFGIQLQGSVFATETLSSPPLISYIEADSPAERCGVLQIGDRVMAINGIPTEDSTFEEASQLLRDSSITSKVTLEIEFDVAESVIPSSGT

[12] = target: MAGI1_1, Q96QZ7
[13] = target: T5, LNX2_3, Q8N448
T5 sequence (Q8N448 463-564, limits assumed, looked up): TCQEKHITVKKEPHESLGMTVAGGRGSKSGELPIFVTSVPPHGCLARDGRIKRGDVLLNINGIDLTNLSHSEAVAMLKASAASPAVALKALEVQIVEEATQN

[14] = target: T6, TX1BP3, O14907
T6 sequence (O14907 10-122, limits assumed, looked up): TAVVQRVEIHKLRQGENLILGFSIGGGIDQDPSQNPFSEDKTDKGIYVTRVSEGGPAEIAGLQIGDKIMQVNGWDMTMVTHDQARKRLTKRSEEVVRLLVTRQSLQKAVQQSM

[15] = target: T7, RAPGEF6, Q8TEU7
T7 sequence (Q8TEU7 525-625, limits assumed, looked up): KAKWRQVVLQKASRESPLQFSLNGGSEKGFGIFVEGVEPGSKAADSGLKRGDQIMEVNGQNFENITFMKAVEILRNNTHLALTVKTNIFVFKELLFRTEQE

[16] = target: MAST1, Q9Y2H9
[17] = target: SCRIB_3, Q14160
[18] = target: Inadl_9, Q8NI35
[19] = target: DLG1_1, Q12959
[20] = target: T8, PDZD7_3, Q9H5P4
T8 sequence (Q9H5P4 857-944, limits assumed, looked up): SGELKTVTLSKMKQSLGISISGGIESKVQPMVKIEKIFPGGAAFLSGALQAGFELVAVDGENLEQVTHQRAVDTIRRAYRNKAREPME

[21] = target: T9, GRIP1_2, Q9Y3R0
T9 sequence (Q9Y3R0 145-248, limits assumed, looked up): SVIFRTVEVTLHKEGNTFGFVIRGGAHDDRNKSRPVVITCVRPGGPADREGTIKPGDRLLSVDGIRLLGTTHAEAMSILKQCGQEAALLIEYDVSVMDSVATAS

[22] = target: Inadl_10, Q8NI35
[23] = target: T10, ARHGEF11, O15085
T10 sequence (O15085 42-136, limits assumed, looked up): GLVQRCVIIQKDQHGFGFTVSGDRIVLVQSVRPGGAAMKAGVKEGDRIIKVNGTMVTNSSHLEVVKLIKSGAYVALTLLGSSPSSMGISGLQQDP

[24] = target: T11, HTRA3, P83110
T11 sequence (P83110 354-453, limits assumed, looked up): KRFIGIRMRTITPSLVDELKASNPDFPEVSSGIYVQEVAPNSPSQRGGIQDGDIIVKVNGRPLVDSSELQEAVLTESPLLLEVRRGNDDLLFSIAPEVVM

[25] = target: LIMK2, P53671
[26] = target: T12, PARD3B_1, Q8TEW8
T12 sequence (Q8TEW8 196-299, limits assumed, looked up): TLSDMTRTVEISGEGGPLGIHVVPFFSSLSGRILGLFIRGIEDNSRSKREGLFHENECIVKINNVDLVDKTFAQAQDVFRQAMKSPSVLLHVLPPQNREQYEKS

[27] = plain residues with an end cap or a label only (N-terminal biotin on a linker: ttds)
[28] = plain residues with an end cap or a label only (N-terminal biotin on a linker: ahx)

MAST1, Q9Y2H9, sequence (Q9Y2H9 962-1065): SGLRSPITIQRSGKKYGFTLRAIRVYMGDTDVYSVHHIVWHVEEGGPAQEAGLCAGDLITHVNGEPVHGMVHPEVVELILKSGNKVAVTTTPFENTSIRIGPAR
SCRIB_3, Q14160, sequence (Q14160 999-1103): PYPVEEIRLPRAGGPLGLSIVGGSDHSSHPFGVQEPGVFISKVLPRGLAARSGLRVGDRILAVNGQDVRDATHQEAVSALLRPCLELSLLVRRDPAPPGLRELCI
NHERF2_2, Q15599, sequence (Q15599 142-238): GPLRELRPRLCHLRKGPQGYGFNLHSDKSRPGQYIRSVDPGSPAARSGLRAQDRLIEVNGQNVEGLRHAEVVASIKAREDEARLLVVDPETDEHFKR
Inadl_9, Q8NI35, sequence (Q8NI35 1530-1615): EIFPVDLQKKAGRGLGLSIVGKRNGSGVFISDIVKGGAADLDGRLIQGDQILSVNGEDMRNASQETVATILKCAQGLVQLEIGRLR
LIMK2, P53671, sequence (P53671 143-248): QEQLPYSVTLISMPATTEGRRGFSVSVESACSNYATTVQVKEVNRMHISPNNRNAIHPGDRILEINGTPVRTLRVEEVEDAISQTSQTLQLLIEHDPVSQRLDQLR
PARD3_3, Q8TEW0, sequence (Q8TEW0 582-685): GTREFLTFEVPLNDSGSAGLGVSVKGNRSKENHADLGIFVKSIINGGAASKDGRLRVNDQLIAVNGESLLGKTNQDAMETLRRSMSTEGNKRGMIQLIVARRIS
CASK, O14936, sequence (O14936 487-570): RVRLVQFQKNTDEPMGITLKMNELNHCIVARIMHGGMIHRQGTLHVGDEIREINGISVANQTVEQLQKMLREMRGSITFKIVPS
Inadl_10, Q8NI35, sequence (Q8NI35 1673-1763): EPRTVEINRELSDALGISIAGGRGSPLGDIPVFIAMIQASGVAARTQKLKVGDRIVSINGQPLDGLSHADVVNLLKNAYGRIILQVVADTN
PTPN3, P26045, sequence (P26045 505-587): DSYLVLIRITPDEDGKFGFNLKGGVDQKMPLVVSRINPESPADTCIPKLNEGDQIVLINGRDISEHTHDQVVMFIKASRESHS
MAGI1_1, Q96QZ7, sequence (Q96QZ7 1-106): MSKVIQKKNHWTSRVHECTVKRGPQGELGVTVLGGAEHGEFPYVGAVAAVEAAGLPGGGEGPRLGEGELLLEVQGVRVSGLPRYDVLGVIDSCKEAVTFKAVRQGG
Inadl_4, Q8NI35, sequence (Q8NI35 547-651): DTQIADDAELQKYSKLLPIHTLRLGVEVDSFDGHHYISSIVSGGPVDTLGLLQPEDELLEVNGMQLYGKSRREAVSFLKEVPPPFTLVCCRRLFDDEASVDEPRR
GRIP2_3, Q9C0E4, sequence (Q9C0E4 238-339): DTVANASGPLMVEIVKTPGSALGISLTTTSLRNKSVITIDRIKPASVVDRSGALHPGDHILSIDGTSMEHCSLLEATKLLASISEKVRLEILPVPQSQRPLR
PDZRN4_1, Q6ZMN7, sequence (Q6ZMN7 213-318): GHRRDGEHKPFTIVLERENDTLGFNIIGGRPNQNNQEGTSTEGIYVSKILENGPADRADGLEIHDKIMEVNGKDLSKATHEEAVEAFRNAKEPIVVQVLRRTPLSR

pKd [1, 27]: 4.97
pKd [2, 27]: below the threshold
pKd [3, 27]: below the threshold
pKd [4, 27]: below the threshold
pKd [5, 27]: 4.9
pKd [6, 27]: 4.04
pKd [7, 27]: below the threshold
pKd [8, 27]: 5.17
pKd [9, 27]: below the threshold
pKd [10, 27]: below the threshold
pKd [11, 27]: below the threshold
pKd [12, 27]: below the threshold
pKd [13, 27]: below the threshold
pKd [14, 27]: 3.83
pKd [15, 27]: below the threshold
pKd [16, 27]: 5.14
pKd [17, 27]: 5.07
pKd [18, 27]: below the threshold
pKd [19, 27]: below the threshold
pKd [20, 27]: 4.47
pKd [21, 27]: below the threshold
pKd [22, 27]: below the threshold
pKd [23, 27]: 4.44
pKd [24, 27]: below the threshold
pKd [25, 27]: below the threshold
pKd [26, 27]: below the threshold
Binder: GQDSREETQL [KCNT2, Q6UVM3]

pKd [1, 27]: 4.26
pKd [2, 27]: below the threshold
pKd [3, 27]: below the threshold
pKd [4, 27]: below the threshold
pKd [5, 27]: 4.76
pKd [6, 27]: below the threshold
pKd [7, 27]: below the threshold
pKd [8, 27]: 5.24
pKd [9, 27]: below the threshold
pKd [10, 27]: below the threshold
pKd [11, 27]: below the threshold
pKd [12, 27]: below the threshold
pKd [13, 27]: below the threshold
pKd [14, 27]: below the threshold
pKd [15, 27]: below the threshold
pKd [16, 27]: 4.91
pKd [17, 27]: 4.57
pKd [18, 27]: below the threshold
pKd [19, 27]: below the threshold
pKd [20, 27]: 4.25
pKd [21, 27]: below the threshold
pKd [22, 27]: below the threshold
pKd [23, 27]: 4.79
pKd [24, 27]: below the threshold
pKd [25, 27]: below the threshold
pKd [26, 27]: 3.93
Binder: IDNDTESTAL [ARHGAP17, Q68EM7]

pKd [1, 28]: below the threshold
pKd [2, 28]: below the threshold
pKd [3, 28]: below the threshold
pKd [4, 28]: below the threshold
pKd [5, 28]: below the threshold
pKd [6, 28]: below the threshold
pKd [7, 28]: below the threshold
pKd [8, 28]: below the threshold
pKd [9, 28]: below the threshold
pKd [10, 28]: below the threshold
pKd [11, 28]: below the threshold
pKd [12, 28]: below the threshold
pKd [13, 28]: below the threshold
pKd [14, 28]: below the threshold
pKd [15, 28]: below the threshold
pKd [16, 28]: below the threshold
pKd [17, 28]: below the threshold
pKd [18, 28]: below the threshold
pKd [19, 28]: below the threshold
pKd [20, 28]: below the threshold
pKd [21, 28]: below the threshold
pKd [22, 28]: below the threshold
pKd [23, 28]: below the threshold
pKd [24, 28]: below the threshold
pKd [25, 28]: below the threshold
pKd [26, 28]: below the threshold
Binder: TEAKLTETNA [MYO18A, Q92614]

pKd [1, 27]: 4.41
pKd [2, 27]: below the threshold
pKd [3, 27]: below the threshold
pKd [4, 27]: below the threshold
pKd [5, 27]: 4.98
pKd [6, 27]: 3.7
pKd [7, 27]: below the threshold
pKd [8, 27]: 4.12
pKd [9, 27]: below the threshold
pKd [10, 27]: below the threshold
pKd [11, 27]: below the threshold
pKd [12, 27]: 3.55
pKd [13, 27]: 3.53
pKd [14, 27]: 4.76
pKd [15, 27]: 3.55
pKd [16, 27]: 4.26
pKd [17, 27]: 4.65
pKd [18, 27]: below the threshold
pKd [19, 27]: 3.68
pKd [20, 27]: 3.69
pKd [21, 27]: below the threshold
pKd [22, 27]: below the threshold
pKd [23, 27]: 3.87
pKd [24, 27]: 3.54
pKd [25, 27]: below the threshold
pKd [26, 27]: below the threshold
Binder: QSARYRDTEL [TJP2, Q9UDY2]

pKd [1, 27]: 4.46
pKd [2, 27]: below the threshold
pKd [3, 27]: below the threshold
pKd [4, 27]: 4.7
pKd [5, 27]: 4.97
pKd [6, 27]: below the threshold
pKd [7, 27]: below the threshold
pKd [8, 27]: 3.75
pKd [9, 27]: below the threshold
pKd [10, 27]: below the threshold
pKd [11, 27]: below the threshold
pKd [12, 27]: below the threshold
pKd [13, 27]: below the threshold
pKd [14, 27]: 4.21
pKd [15, 27]: below the threshold
pKd [16, 27]: below the threshold
pKd [17, 27]: 4.54
pKd [18, 27]: below the threshold
pKd [19, 27]: 4.45
pKd [20, 27]: below the threshold
pKd [21, 27]: below the threshold
pKd [22, 27]: below the threshold
pKd [23, 27]: below the threshold
pKd [24, 27]: below the threshold
pKd [25, 27]: below the threshold
pKd [26, 27]: below the threshold
Binder: VLRLQSETSV [VANGL1, Q8TAA9]

— publication PMC9482650, “Quantitative fragmentomics allow affinity mapping of interactomes” (Nature Communications, 2022)
